Laboratory results from patent US8507275B2, “Method of inducing differentiation of embryonic stem cells into hemangioblast” (Korea Advanced Institute of Science and Technology (Kaist), priority 2008, dated 2013).

Experiments:
[1] = test system: human embryonic stem cells; test: RT-PCR of mesoderm-specific marker genes in treated human embryonic stem cells; assay type: cell-based; details: PD98059 20˜50 μM, BMP-4 10˜20 ng/ml; 3 days and 5 days; FIG. 2(A)
Protocol: The human embryonic stem cells cultured in Example 1 were cultured for 3 days in a conditioned medium that contained the MEK1/2 inhibitors, PD98059 and BMP-4 at a concentration of 20˜50 μM and 10˜20 ng/ml, respectively. Then, in order to confirm the differentiation of human embryonic stem cells into mesodermal cells, expression of the mesoderm-specific marker genes was examined by RT-PCR. For analysis of gene expression, total RNA was isolated from cells, and cDNA was synthesized using reverse transcriptase, followed by PCR (polymerase-chain reaction) using primers specific to each gene.
As a control group, sample was cultured only in the conditioned medium for 5 days. As experimental groups, cells were cultured for 3 days and 5 days in culture media that were prepared by adding each of PD98059 and BMP-4 to the unconditioned medium at a concentration of 20˜50 μM and 10˜20 ng/ml, respectively. In addition, cells were simultaneously treated with PD98059 and BMP-4, and examined for 3 days and 5 days.

[2] = test system: CD34 positive cells (hESC-derived hemangioblasts); test: RT-PCR of vascular smooth muscle cell-specific markers in CD34 positive cells; assay type: cell-based, human; details: EGM with PDGF-BB 50 ng/ml, about 5 days; FIG. 5(a)
Protocol: In order to differentiate CD34 positive cells into vascular smooth muscle cells, CD34 positive cells were cultured for about 5 days in EGM (Endothelial cell Growth Medium, clonetics, USA) containing PDGF-BB at a concentration of 50 ng/ml. Expressions of the vascular smooth muscle cell-specific markers were examined by RT-PCR. For analysis of gene expression, total RNA was isolated from cells, and cDNA was synthesized using reverse transcriptase, followed by PCR (polymerase-chain reaction) using primers specific to each gene.

[3] = test system: hESC-derived vascular smooth muscle cells; test: Immunofluorescent staining of vascular smooth muscle cell-specific markers; assay type: cell-based, human; details: EGM with PDGF-BB; FIG. 5(b)
Protocol: In order to confirm the differentiation into vascular smooth muscle cell at protein level, expressions of the vascular smooth muscle cell-specific markers were examined by immunofluorescent staining. In order to stain the hESC-derived vascular smooth muscle cells with the vascular smooth muscle cell-specific markers, α-smooth muscle actin (α-SMA) and calponin, the sample was first fixed in 4% paraformaldehyde at room temperature for 20 min, and then washed with a PBST solution (0.1% Tween-20 in PBS) for 5 min three times. To allow permeabilization of antibodies into the nucleus, a permeating solution (0.1% Triton X-100 in PBS) was added to culture plates, and left at room temperature for 15 min. After 15 min, the permeating solution was removed, and 4% NGS (Normal Goat Serum) was added for blocking at room temperature for 1 hr. […] Next day, in order to examine expressions of the markers (α-SMA, calponin) under a fluorescence microscope, secondary antibodies against the marker antibodies (Alexa 488-conjugated Goat anti-mouse IgG and Alexa 594-conjugated Goat anti-Rabbit poly) were added, and left at room temperature for 1 hr. After 1 hr, the culture plates were washed with a PBST solution for 10 min five times, and a fluorescence microscope was used to examine their expressions.

Molecule: COc1cccc(-c2cc(=O)c3ccccc3o2)c1N [PD98059, 2-(2-amino-3-methoxyphenyl)-4H-1-Benzopyran-4-one2-(2′-Amino-3′-methoxy)-flavone2-(2-amino-3-methoxyphenyl)-chromone, reference compound]
- Expressions of the mesoderm-specific markers BRACHYURY, GOOSECOID, TBX-4, TBX-5 and TBX-6 (RT-PCR) [1]: not observed

B1: PDGF-BB: Platelet-derived growth factor-BB (protein, UniProt P01127 82-190, looked up)
Platelet-derived growth …: SLGSLTIAEPAMIAECKTRTEVFEISRRLIDRTNANFLVWPPCVEVQRCSGCCNNRNVQCRPTQVQLRPVQVRKIEIVRKKPIFKKATVTLEDHLACKCETVAAARPVT
- Expression of the vascular smooth muscle cell-specific markers SM22α, SM-MHC, PDGF-B receptor, α-SMA and calponin (RT-PCR) [2]: found to express
- Expressions of the vascular smooth muscle cell-specific markers α-SMA and calponin at protein level (immunofluorescent staining) [3]: observed

B2: BMP-4: bone morphogenetic protein, growth factor used to regulate differentiation of embryonic stem cells (protein, UniProt P12644 293-408, looked up)
Bone morphogenetic protein 4: SPKHHSQRARKKNKNCRRHSLYVDFSDVGWNDWIVAPPGYQAFYCHGDCPFPLADHLNSTNHAIVQTLVNSVNSSIPKACCVPTELSAISMLYLDEYDKVVLKNYQEMVVEGCGCR
- Expressions of the mesoderm-specific markers BRACHYURY, GOOSECOID, TBX-4, TBX-5 and TBX-6 (RT-PCR) [1]: not observed
